Experimental data taken from the supplement of paper PMC10065799, “High-throughput profiling of sequence recognition by tyrosine kinases and SH2 domains using bacterial peptide display” (eLife, 2023).

Molecular target: Fes (UniProt P07332)
Test: phosphorylation enrichment, bacterial display (enrichment ratio); higher = better substrate or ligand; peptides without Tyr show the background
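Further: 11-residue human phosphosite peptides and single-mutation variants displayed on the E. coli surface, counted by deep sequencing, each peptide's frequency after selection divided by its frequency in the unselected input library; frequency after pTyr selection over input frequency; kinase dosed for 20-30% of maximal phosphorylation in three min.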

Sequence of Fes (P07332 whole entry, looked up): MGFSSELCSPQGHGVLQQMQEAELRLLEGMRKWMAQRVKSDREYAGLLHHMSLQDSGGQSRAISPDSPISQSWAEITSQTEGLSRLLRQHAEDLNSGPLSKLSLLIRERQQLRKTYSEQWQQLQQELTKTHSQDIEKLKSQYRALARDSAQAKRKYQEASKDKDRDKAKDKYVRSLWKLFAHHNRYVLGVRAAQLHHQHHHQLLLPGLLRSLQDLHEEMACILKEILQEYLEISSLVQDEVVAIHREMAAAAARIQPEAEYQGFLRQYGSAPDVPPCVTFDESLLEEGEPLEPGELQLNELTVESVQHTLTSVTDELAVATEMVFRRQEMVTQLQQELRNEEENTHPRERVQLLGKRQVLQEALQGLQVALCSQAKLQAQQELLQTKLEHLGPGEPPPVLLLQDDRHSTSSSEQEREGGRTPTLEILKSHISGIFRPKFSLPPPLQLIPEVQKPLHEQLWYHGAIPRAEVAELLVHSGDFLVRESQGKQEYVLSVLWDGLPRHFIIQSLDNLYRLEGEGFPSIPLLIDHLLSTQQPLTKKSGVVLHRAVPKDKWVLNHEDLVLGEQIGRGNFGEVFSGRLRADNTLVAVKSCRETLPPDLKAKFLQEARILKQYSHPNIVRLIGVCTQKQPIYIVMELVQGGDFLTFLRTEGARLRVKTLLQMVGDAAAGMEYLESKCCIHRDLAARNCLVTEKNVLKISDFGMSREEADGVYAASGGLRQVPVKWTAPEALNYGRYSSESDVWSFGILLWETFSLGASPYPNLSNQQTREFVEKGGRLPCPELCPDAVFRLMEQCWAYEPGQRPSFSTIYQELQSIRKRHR

Point of comparison: DSSIRYLQEIF [FGG_Y135_YF], phosphorylation enrichment 0.924. Against it:
- QHNPEYVQQAS [LRRC7_Y1058] — lower, 0.867
- SENPKYPEVGD [TMEM43_Y233] — higher, 1.2
- TYEPNYGTVKR [RAPGEF6_Y1447_Q1452R] — lower, 0.614
- SNFRAYATEPH [TNNI3_Y29_YF] — lower, 0.664
- IRGNMYFENSF [EGFR_Y112_YF] — higher, 1.07
- WKKEIYEESST [MOCS2_Y170] — higher, 1.17
- LGRGKSSEVFE [CSNK2A1_Y50_Y50S] — higher, 1.01
- KSMSVYCTPNK [ATP2A2_Y497] — higher, 0.94
- VYAADYYKLLG [ROR2_Y645] — higher, 0.944
- KDHPDYKYPPR [SOX10_Y171_Q174P] — lower, 0.601
- ESDGAYIQRMQ [CCDC137_Y125_H127Q] — lower, 0.772
- RDMNAYISPSP [MMAA_Y207_R209S] — higher, 1.03
- ARKRKYFKKHE [NFIX_Y40] — lower, 0.653
- HTEGEYSSLEH [IDH3B_Y171_Q166H] — higher, 1.09
- IGEGTSGVVYK [CDK2_Y15_Y15S] — lower, 0.616
- KLPDAYERLIL [G6PD_Y437] — higher, 0.944
- HSGVSYYINLC [IGF2R_Y2024_N2020S] — higher, 1.93
- KDHPDYKYQRR [SOX10_Y171_P175R] — lower, 0.574
- QRRNVYYYSYL [PTEN_Y176_Y174N] — higher, 1.41
- GDYLSYREFHL [ERBIN_Y1107_S1112L] — lower, 0.809
- DPTFGYEDFTR [SESN2_Y323] — higher, 1.28
- PGIRMYQVQYN [LRFN1_Y454] — higher, 1.39
- LESETYRRLLD [KRT12_Y429_I426S] — higher, 1.66
- IHHIDYYKETT [FGFR1_Y653_K656E] — higher, 1.05
- QRIHDYYEHRY [HCN4_Y554] — higher, 0.974
- LTSKPYAFTAQ [NDUFS1_Y236_R241Q] — lower, 0.696
- ERMKVYVPIGF [EPHX1_Y393_T396I] — lower, 0.742
- PTYEHYANSTQ [SLC12A3_Y70] — higher, 1.2
- IDAICYFRMEN [NPHS2_Y194_YF] — higher, 1.59
- TSYQMYDKGLV [IARS2_Y231_F227S] — lower, 0.769
- EKKDVYKAGEQ [CFH_Y1008] — lower, 0.675
- LNPFIYSLRNW [OR1A2_Y288] — higher, 1.73

Molecular target: EPHB1 (UniProt P54762)
Test: as above

Sequence of EPHB1 (P54762 whole entry, looked up): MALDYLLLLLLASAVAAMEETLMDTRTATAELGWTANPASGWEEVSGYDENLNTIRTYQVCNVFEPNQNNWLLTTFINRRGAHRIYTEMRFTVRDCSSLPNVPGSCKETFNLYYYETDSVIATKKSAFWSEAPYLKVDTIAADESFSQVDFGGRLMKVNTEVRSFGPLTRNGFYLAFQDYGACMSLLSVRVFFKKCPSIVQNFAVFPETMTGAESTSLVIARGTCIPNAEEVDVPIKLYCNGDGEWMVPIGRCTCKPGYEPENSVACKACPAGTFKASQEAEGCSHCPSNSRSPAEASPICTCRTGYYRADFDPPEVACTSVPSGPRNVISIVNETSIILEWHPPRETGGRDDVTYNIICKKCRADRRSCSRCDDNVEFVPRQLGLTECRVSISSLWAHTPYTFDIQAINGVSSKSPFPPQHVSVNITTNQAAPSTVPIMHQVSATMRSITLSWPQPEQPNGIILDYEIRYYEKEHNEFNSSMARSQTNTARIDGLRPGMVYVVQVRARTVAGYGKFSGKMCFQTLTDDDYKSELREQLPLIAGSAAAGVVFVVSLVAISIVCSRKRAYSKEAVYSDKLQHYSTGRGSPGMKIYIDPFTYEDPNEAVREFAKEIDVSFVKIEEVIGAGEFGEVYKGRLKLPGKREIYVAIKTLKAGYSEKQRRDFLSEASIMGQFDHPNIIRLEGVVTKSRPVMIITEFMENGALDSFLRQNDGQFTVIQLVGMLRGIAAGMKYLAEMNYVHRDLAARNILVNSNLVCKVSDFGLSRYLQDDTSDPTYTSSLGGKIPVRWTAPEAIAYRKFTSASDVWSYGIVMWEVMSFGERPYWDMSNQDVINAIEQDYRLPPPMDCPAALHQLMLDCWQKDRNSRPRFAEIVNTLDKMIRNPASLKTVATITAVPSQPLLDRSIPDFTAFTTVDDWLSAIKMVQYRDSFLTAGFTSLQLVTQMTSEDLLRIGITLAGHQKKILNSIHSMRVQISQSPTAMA

Point of comparison: IRGNMYFENSF [EGFR_Y112_YF], phosphorylation enrichment 0.581. Against it:
- QHNPEYVQQAS [LRRC7_Y1058] — lower, 0.542
- SENPKYPEVGD [TMEM43_Y233] — lower, 0.459
- TYEPNYGTVKR [RAPGEF6_Y1447_Q1452R] — higher, 1.34
- SNFRAYATEPH [TNNI3_Y29_YF] — lower, 0.399
- WKKEIYEESST [MOCS2_Y170] — lower, 0.422
- LGRGKSSEVFE [CSNK2A1_Y50_Y50S] — lower, 0.341
- KSMSVYCTPNK [ATP2A2_Y497] — higher, 0.696
- VYAADYYKLLG [ROR2_Y645] — higher, 2.38
- KDHPDYKYPPR [SOX10_Y171_Q174P] — lower, 0.355
- ESDGAYIQRMQ [CCDC137_Y125_H127Q] — lower, 0.474
- RDMNAYISPSP [MMAA_Y207_R209S] — lower, 0.553
- ARKRKYFKKHE [NFIX_Y40] — lower, 0.511
- HTEGEYSSLEH [IDH3B_Y171_Q166H] — higher, 1.44
- IGEGTSGVVYK [CDK2_Y15_Y15S] — lower, 0.374
- KLPDAYERLIL [G6PD_Y437] — lower, 0.545
- HSGVSYYINLC [IGF2R_Y2024_N2020S] — higher, 1.15
- KDHPDYKYQRR [SOX10_Y171_P175R] — lower, 0.33
- QRRNVYYYSYL [PTEN_Y176_Y174N] — higher, 5.79
- GDYLSYREFHL [ERBIN_Y1107_S1112L] — higher, 16.4
- DPTFGYEDFTR [SESN2_Y323] — lower, 0.525
- PGIRMYQVQYN [LRFN1_Y454] — higher, 0.93
- LESETYRRLLD [KRT12_Y429_I426S] — higher, 0.75
- IHHIDYYKETT [FGFR1_Y653_K656E] — higher, 0.594
- QRIHDYYEHRY [HCN4_Y554] — higher, 1.17
- LTSKPYAFTAQ [NDUFS1_Y236_R241Q] — lower, 0.469
- ERMKVYVPIGF [EPHX1_Y393_T396I] — higher, 0.623
- PTYEHYANSTQ [SLC12A3_Y70] — higher, 1.2
- DSSIRYLQEIF [FGG_Y135_YF] — lower, 0.576
- IDAICYFRMEN [NPHS2_Y194_YF] — higher, 0.692
- TSYQMYDKGLV [IARS2_Y231_F227S] — lower, 0.468
- EKKDVYKAGEQ [CFH_Y1008] — lower, 0.336
- LNPFIYSLRNW [OR1A2_Y288] — higher, 1.52

Molecular target: Fyn (UniProt P06241)
Test: as above

Sequence of Fyn (P06241 whole entry, looked up): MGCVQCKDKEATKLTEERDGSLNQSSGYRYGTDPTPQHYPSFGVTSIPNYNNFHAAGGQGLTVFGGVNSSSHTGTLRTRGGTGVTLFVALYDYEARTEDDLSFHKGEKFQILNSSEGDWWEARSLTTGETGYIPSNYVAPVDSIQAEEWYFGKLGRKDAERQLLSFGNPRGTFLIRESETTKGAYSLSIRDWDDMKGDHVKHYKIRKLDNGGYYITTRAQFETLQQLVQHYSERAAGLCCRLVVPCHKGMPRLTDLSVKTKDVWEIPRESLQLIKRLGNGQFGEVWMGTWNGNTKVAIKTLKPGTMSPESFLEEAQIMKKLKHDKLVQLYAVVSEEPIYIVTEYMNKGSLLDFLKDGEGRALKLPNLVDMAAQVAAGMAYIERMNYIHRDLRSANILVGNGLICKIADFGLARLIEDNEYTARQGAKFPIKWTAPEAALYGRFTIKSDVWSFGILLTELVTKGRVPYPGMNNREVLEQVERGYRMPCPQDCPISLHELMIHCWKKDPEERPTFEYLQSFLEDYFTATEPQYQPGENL

Point of comparison: TSYQMYDKGLV [IARS2_Y231_F227S], phosphorylation enrichment 0.604. Against it:
- QHNPEYVQQAS [LRRC7_Y1058] — lower, 0.486
- SENPKYPEVGD [TMEM43_Y233] — higher, 0.616
- TYEPNYGTVKR [RAPGEF6_Y1447_Q1452R] — higher, 4.41
- SNFRAYATEPH [TNNI3_Y29_YF] — lower, 0.473
- IRGNMYFENSF [EGFR_Y112_YF] — lower, 0.438
- WKKEIYEESST [MOCS2_Y170] — lower, 0.424
- LGRGKSSEVFE [CSNK2A1_Y50_Y50S] — higher, 0.646
- KSMSVYCTPNK [ATP2A2_Y497] — higher, 0.699
- VYAADYYKLLG [ROR2_Y645] — higher, 1.01
- KDHPDYKYPPR [SOX10_Y171_Q174P] — lower, 0.438
- ESDGAYIQRMQ [CCDC137_Y125_H127Q] — lower, 0.423
- RDMNAYISPSP [MMAA_Y207_R209S] — lower, 0.365
- ARKRKYFKKHE [NFIX_Y40] — lower, 0.561
- HTEGEYSSLEH [IDH3B_Y171_Q166H] — higher, 1.46
- IGEGTSGVVYK [CDK2_Y15_Y15S] — lower, 0.28
- KLPDAYERLIL [G6PD_Y437] — lower, 0.491
- HSGVSYYINLC [IGF2R_Y2024_N2020S] — higher, 0.661
- KDHPDYKYQRR [SOX10_Y171_P175R] — lower, 0.283
- QRRNVYYYSYL [PTEN_Y176_Y174N] — higher, 9.83
- GDYLSYREFHL [ERBIN_Y1107_S1112L] — higher, 3.1
- DPTFGYEDFTR [SESN2_Y323] — lower, 0.461
- PGIRMYQVQYN [LRFN1_Y454] — higher, 0.815
- LESETYRRLLD [KRT12_Y429_I426S] — higher, 0.684
- IHHIDYYKETT [FGFR1_Y653_K656E] — lower, 0.549
- QRIHDYYEHRY [HCN4_Y554] — higher, 0.657
- LTSKPYAFTAQ [NDUFS1_Y236_R241Q] — lower, 0.489
- ERMKVYVPIGF [EPHX1_Y393_T396I] — higher, 1.13
- PTYEHYANSTQ [SLC12A3_Y70] — higher, 2.56
- DSSIRYLQEIF [FGG_Y135_YF] — lower, 0.559
- IDAICYFRMEN [NPHS2_Y194_YF] — lower, 0.572
- EKKDVYKAGEQ [CFH_Y1008] — lower, 0.404
- LNPFIYSLRNW [OR1A2_Y288] — higher, 7.05

Tested on: c-Src
Test: as above

Point of comparison: KDHPDYKYQRR [SOX10_Y171_P175R], phosphorylation enrichment 0.319. Against it:
- QHNPEYVQQAS [LRRC7_Y1058] — higher, 0.597
- SENPKYPEVGD [TMEM43_Y233] — higher, 0.584
- TYEPNYGTVKR [RAPGEF6_Y1447_Q1452R] — higher, 3.06
- SNFRAYATEPH [TNNI3_Y29_YF] — higher, 0.486
- IRGNMYFENSF [EGFR_Y112_YF] — higher, 0.395
- WKKEIYEESST [MOCS2_Y170] — higher, 0.485
- LGRGKSSEVFE [CSNK2A1_Y50_Y50S] — higher, 0.653
- KSMSVYCTPNK [ATP2A2_Y497] — higher, 0.455
- VYAADYYKLLG [ROR2_Y645] — higher, 2.26
- KDHPDYKYPPR [SOX10_Y171_Q174P] — higher, 0.4
- ESDGAYIQRMQ [CCDC137_Y125_H127Q] — higher, 0.456
- RDMNAYISPSP [MMAA_Y207_R209S] — higher, 0.416
- ARKRKYFKKHE [NFIX_Y40] — higher, 0.56
- HTEGEYSSLEH [IDH3B_Y171_Q166H] — higher, 1.02
- IGEGTSGVVYK [CDK2_Y15_Y15S] — lower, 0.29
- KLPDAYERLIL [G6PD_Y437] — higher, 0.542
- HSGVSYYINLC [IGF2R_Y2024_N2020S] — higher, 0.488
- QRRNVYYYSYL [PTEN_Y176_Y174N] — higher, 8.15
- GDYLSYREFHL [ERBIN_Y1107_S1112L] — higher, 2.46
- DPTFGYEDFTR [SESN2_Y323] — higher, 0.694
- PGIRMYQVQYN [LRFN1_Y454] — higher, 0.727
- LESETYRRLLD [KRT12_Y429_I426S] — higher, 0.517
- IHHIDYYKETT [FGFR1_Y653_K656E] — higher, 0.409
- QRIHDYYEHRY [HCN4_Y554] — higher, 0.478
- LTSKPYAFTAQ [NDUFS1_Y236_R241Q] — higher, 0.345
- ERMKVYVPIGF [EPHX1_Y393_T396I] — higher, 0.907
- PTYEHYANSTQ [SLC12A3_Y70] — higher, 5.29
- DSSIRYLQEIF [FGG_Y135_YF] — higher, 0.497
- IDAICYFRMEN [NPHS2_Y194_YF] — higher, 0.613
- TSYQMYDKGLV [IARS2_Y231_F227S] — higher, 0.54
- EKKDVYKAGEQ [CFH_Y1008] — higher, 0.394
- LNPFIYSLRNW [OR1A2_Y288] — higher, 8.69
